To fix the notation:
B1: VH59 fused to the VP16 activation domain (pEF-VP16, CHO cells) / GAL4 DNA binding domain (DBD)-LEDGF IBD fusion (pM1, CHO cells) [not stated] (parent complex)
chain 1: EVQLLESGGGLVQPGGSLRLSCAASGFTFSTFSMNWVRQAPGKGLEWVSYISRTSKTIYYADSVKGRFTISRDNSKNTLYLQMNSLRAEDTAVYYCARGGWALGDEIPSSFLEFDYWGQGTLVTVS
chain 2: ETSMDSRLQRIHAEIKNSLKIDNLDVNRCIEALDELASLQVTMQQAQKHTEMITTLKKIRRFKVSQVIMEKSTMLYNKFKNMFLVGE

Variants of B1 are the subject of one assay. Kind of assay: mammalian two-hybrid luciferase reporter assay in CHO cells; 48 h after transfection; Firefly/Renilla luciferase; n = 3; read off a plot.
On to chain 1 Y116A, for which the response is ~0.92.
On to chain 1 W117A, for which the response was ~0.04.
Same read-out and setting: in the case of chain 1 D115A it was ~0.04; in that of chain 1 Y95A, ~0.04; in that of chain 1 L45A, ~1.2.

Variants of B1 are the subject of the next assay. Described as above. This is another data set of the same source.
In the case of chain 1 S110A, the response was ~0.04.
On to chain 1 P108A, for which the response was ~0.04.
The same measure, in the same setting: in the case of chain 1 L112A it was ~0.05; in that of chain 1 S109A, ~0.46; in that of chain 1 F111A, ~0.04.

Another assay covers variants of B1. Kind of assay: mammalian two-hybrid luciferase reporter assay in CHO cells; 48 h after transfection; Firefly luciferase normalised to Renilla; read off a plot.
With chain 2 I21A, the response is ~0.05.
With chain 2 L19A, the response was ~0.08.
As for chain 2 K58A, the response is ~0.09.
As for chain 2 D22A, the response is ~0.79.
chain 2 K63A: the response is ~0.35.
As to chain 2 R61A, the response was ~2.
In the case of chain 2 K20A, the response is ~0.71.
For the variant chain 2 L24A, the response is ~0.02.
chain 2 F62A: the response was ~0.05.
Consider chain 2 V64A, for which the response was ~0.12.

Values taken from paper PMC5715112 (2017).
